Measured values reported in patent US20240076396A1 (Regeneron, published 2024).

Experiments:
[1] = target: T1, cynomolgus monkey GITR expressed on the cell surface (Macaca fascicularis (cynomolgus monkey)); test: cell-based or functional assay
[2] = target: T2, human GITR expressed on the cell surface (human, UniProt Q9Y5U5 26-241); test: cell-based or functional assay
T2 sequence: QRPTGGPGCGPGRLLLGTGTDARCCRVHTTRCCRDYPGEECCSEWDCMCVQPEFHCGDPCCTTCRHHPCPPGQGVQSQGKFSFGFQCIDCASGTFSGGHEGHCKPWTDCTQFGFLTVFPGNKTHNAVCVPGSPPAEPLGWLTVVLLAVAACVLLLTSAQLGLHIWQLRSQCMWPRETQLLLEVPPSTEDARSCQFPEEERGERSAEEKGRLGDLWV

[3] = target: T2, human GITR expressed on the cell surface; test: flow cytometry on Jurkat/hCD20/hGITR cells; max MFI over secondary antibody alone
Experimental: (§1) Flow cytometry was used to evaluate mAb1 binding to Jurkat/hCD20/hGITR cells and Jurkat/hCD20/MfGITR cells. Jurkat/hCD20 cells were used as a negative control cell line for GITR binding. Cells were added to a 96-well V-bottom plate (2×10⁵ to 4×10⁵ cells/well) and incubated in Fc block solution, followed by successive incubation on ice with primary antibody (mAb1 or IgG1 isotype control) at final concentrations ranging from 18 pM to 300 nM and a secondary antibody (AF647-conjugated anti-human IgG) at 5 μg/mL. Cells were then stained with LIVE/DEAD Fixable Green Dead Cell Stain according to the manufacturer's instructions. […] Data were analyzed with Flow.lo software. For EC₅₀ (effective concentration at 50% activity) determinations, measured geometric MFI values were analyzed using a 4-parameter logistic equation over a 9-point response curve with GraphPad Prism. The fold binding was determined by taking the ratio of the highest MFI on the curve to the MFI of the wells containing secondary antibody only.
^a The maximum MFI was the highest mean MFI value within the concentration range tested (18 pM to 300 nM). ^b Fold binding was calculated as the maximum MFI above background (secondary antibody alone). h, Human; Mf, Macaca fascicularis (cynomolgus monkey); ND, Not determined because concentration-dependent binding was not observed

[4] = target: T3, hGITR.mmH (soluble monomeric recombinant human GITR ectodomain protein) (human); test: blocking ELISA: 1.5 nM hGITR.mmH pre-incubated with antibody, binding to plate-coated hGITR-L
T3 construct: also called monomeric human GITR
T3 chain: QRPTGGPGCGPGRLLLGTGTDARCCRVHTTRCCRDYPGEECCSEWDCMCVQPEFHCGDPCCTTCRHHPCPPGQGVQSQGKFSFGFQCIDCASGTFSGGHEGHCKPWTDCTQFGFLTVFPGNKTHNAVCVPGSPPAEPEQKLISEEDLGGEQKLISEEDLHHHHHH

[5] = target: T1, cynomolgus monkey GITR expressed on the …; test: flow cytometry on Jurkat/hCD20/MfGITR cells
Experimental: FIG. 5A, FIG. 5B, and FIG. 5C depict cell-surface binding of mAb1 and IgG1 isotype control at a range of concentrations (18 pM to 300 nM) on Jurkat/hCD20 (FIG. 5A), Jurkat/hCD20/hGITR (FIG. 5B), and Jurkat/hCD20/MfGITR (FIG. 5C) cells. Binding was detected using an Alexa647-labeled anti-human IgG by flow cytometry. Fluorescence intensity was plotted as geometric MFI. h, Human; Mf, Macaca fascicularis (cynomolgus monkey).
as §1, with “μg/mL.” for “μg/mL. Cells were then stained with LIVE/DEAD Fixable Green Dead Cell Stain according to the manufacturer's instructions.”

[6] = target: T3, hGITR.mmH (soluble monomeric …); test: SPR Biacore 2000 25C; CHOt supernatant antibody captured on anti-human Fc; 100 nM hGITR.mmH
Experimental: Biacore experiments for antibodies secreted in conditioned culture medium were performed as follows. Using a Biacore 2000 instrument at 25° C., antibodies were captured for 80 seconds at a flow rate of 8 uL/min on a CM5 anti-humanFc-coupled surface. Approximately 1000-2000 RU of each antibody were captured. 100 nM hGITR.mmH (soluble monomeric hGITR, SEQ ID NO: 45) or 50 nM hGITR.mFc (dimeric Macaca fasicularis GITR, SEQ ID NO: 46) were injected over this surface for 2 minutes at a flow rate of 50 uL/min. Dissociation was measured for 2 minutes. The KD and t_{1/2} were calculated by fitting the double-referenced sensorgrams to a 1:1 binding model.

[7] = target: T1, cynomolgus monkey GITR expressed on the …; test: flow cytometry, AF647-conjugated antibody on CD4+ CD69+ cynomolgus monkey primary T cells, donor 58947
Experimental: FIG. 7 depicts antibody binding to CD69+ cynomolgus monkey primary T-cells. Primary cynomolgus monkey T-cells from 4 separate donors were stimulated in vitro with anti-CD2/anti-CD3/anti-CD28-coated beads. Cell-surface binding of AF647-conjugated mAb1 and AF647-conjugated IgG1 isotype control at a range of concentrations (8 pM to 200 nM) on CD69⁺ and CD69⁻ cynomolgus monkey primary CD4⁺ and CD8⁺ T-cells was detected using flow cytometry. Fluorescence intensity was plotted as geometric MFI. Mf, Macaca fascicularis (cynomolgus monkey)
Peripheral blood mononuclear cells (PBMC) were isolated from human or cynomolgus monkey whole blood (4 donors each) using density centrifugation through Ficoll-Paque PLUS in SepMate tubes (for human PBMC) or 50 mL conical tubes (for cynomolgus monkey PBMC) and transferred to a fresh conical tube for incubation in Red Blood Cell (RBC) Lysis Buffer. […] After 4 days, activation beads were removed from the culture using a MACSiMAG Separator, and cells were collected and counted.
Flow cytometry was used to evaluate mAb1 binding to human or cynomolgus monkey T-cells in activated PBMC. […] Data were analyzed with Flowio software. For EC₅₀ determinations, measured geometric MFI values were analyzed using a 4-parameter logistic equation over a 12-point response curve with GraphPad Prism.

B1: mAb1 (antibody, human IgG1, kappa, V domains shown)
VH: QVQLQESGPGLVKPSETLSLTCIVSGGSISGYFWNWIRQPPGKGLEWIGYIYYSGTTIYNPSLKSRFTISLDTSKNQFSLKLTSVTAADTAVYYCARESYDPSPRYFDHWGQGTLVTVSS
VL: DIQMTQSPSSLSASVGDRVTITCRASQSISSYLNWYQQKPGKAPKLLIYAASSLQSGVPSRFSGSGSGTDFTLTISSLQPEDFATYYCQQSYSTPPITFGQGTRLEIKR
notes: Human IgG1; N101D variant of CompAb1; also called N101D Variant; N101D
EC50, ADCP of Jurkat/hCD20/MfGITR [1]: 0.51 nM
Fold Change in Activity, ADCP of Jurkat/hCD20/MfGITR [1]: 6.98 fold
Fold Change in Activity, ADCP of Jurkat/hCD20/hGITR [2]: 5.92 fold
Fold Binding [3]: 290 fold
IC50 [4]: 6.66 nM
EC50 [5]: 3.52 nM
Kd [6]: 14.8 nM
t1/2 [6]: 7.52 min
EC50 (read off the curve) [7]: ~3 nM
